Here are results for 1 molecule from patent publication US20230416394A1.

Assay [1] has as its target human CD39 protein (Octet assays) (human). Nature of the assay: Octet, antibody on sensor, CD39 gradient. In general terms: In BLI a coated tip is dipped into the sample, and binding shifts an interference pattern.
In assay [2] the target is 6×His tagged human CD39 (human). The experiment in a line: Biacore, antibody captured, 6×His human CD39 as analyte, 1:1 model. In general terms: In SPR one partner is held on a chip, and binding of the other changes the refractive index at the surface.
Sequence of 6×His tagged human CD39 (human) (P49961 38-478): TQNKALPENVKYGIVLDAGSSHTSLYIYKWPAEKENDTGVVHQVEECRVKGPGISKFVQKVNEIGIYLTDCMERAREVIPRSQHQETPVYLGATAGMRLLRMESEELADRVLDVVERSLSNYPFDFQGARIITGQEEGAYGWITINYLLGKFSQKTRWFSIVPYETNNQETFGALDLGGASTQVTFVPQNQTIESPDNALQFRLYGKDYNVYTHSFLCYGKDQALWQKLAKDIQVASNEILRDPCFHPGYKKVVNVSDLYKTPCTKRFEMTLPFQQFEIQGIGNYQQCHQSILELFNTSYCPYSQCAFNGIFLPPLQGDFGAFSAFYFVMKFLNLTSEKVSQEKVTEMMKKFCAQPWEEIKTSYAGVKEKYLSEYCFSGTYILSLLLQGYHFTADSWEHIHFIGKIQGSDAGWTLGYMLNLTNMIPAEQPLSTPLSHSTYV

Sequence of human CD39 protein (Octet assays) (human) (P49961 38-478): as above

B1: hu23.H5L5 (antibody, from a related filing, V domains shown)
VH: QVQLVQSGAEVKKPGASVKVSCKASGYNLKDTFLHWVRQAPGQGLEWMGRIDPANGNIKYDPKFQGRVTITADTSANTAYMELISLRSEDTAVYYCANSPYYYGSGYRIFDVWGQGTTVTVSS
VL: QIVLTQSPATLSLSPGERATLSCSAFSSVNYMHWYQQKPGQAPRLLIYTTSNLASGIPTRFSGSGSGTSYTLTISSLEPEDFAVYYCQQRSTYPFTFGQGTKLEIK
One may read the Kd as the free concentration of one partner at which half of the binding sites on the other are occupied at equilibrium, for simple one-to-one binding. The low end stands for a tighter complex, the high end for a looser complex. As a reminder, the koff is the rate constant with which the complex falls apart. Read a high koff as fast dissociation. The kon is the second-order rate constant of association. A low value points to slower complex formation. In assay [1], B1 displayed a Kd of 0.687 nM, a koff of 9.36e-05 s⁻¹ and a kon of 136000 M⁻¹ s⁻¹. Also, in assay [2], the Kd stood at 19.5 nM, the koff is 0.0016 s⁻¹ and the kon stood at 82200 M⁻¹ s⁻¹.
